Data set [1] addresses His598 (UniProt position 598, TYCGCHEAIMA). In words: kinetics. The following applies: 20 mM PBS; Ni-reconstituted protein (Nid site occupied, labile Nip removed with phenanthroline), turning over superoxide.
In data set [2] the target is His598 (UniProt position 598, TSCGCHEAIMA). The data set is described as follows: kinetics. The settings on record: 20 mM PBS; Ni-reconstituted protein (Nid site occupied, labile Nip removed with phenanthroline), turning over superoxide.

In the data set with His598 [1], “Acetyl-coenzyme A synthase, truncated C-terminal fragment ACS-alpha15, YGP-F598H variant (Moorella thermoacetica; S594Y;Y594_C595insGP;F598H)” came in with a pKa of 5.87. Consider “Acetyl-coenzyme A synthase, truncated C-terminal fragment ACS-alpha15, EFG-F598H variant (Moorella thermoacetica; F598H;S594_C595insEFG)”, for which the pKa with His598 [2] is given as 6.09.

The values above are taken from publication PMC8910529.
